Consider one molecule from PMC7087056 (The Yale Journal of Biology and Medicine, 2020).

For this assay, the target named is T1, His6-K10^C401A-2B (human keratin 10 helix 2B domain with C401A, His6 tag kept) (human, UniProt P13645 337-456, C401A).
T1 sequence (looked up): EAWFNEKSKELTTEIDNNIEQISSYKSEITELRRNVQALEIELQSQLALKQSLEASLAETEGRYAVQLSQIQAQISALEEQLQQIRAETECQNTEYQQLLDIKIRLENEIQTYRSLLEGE
In words: pull-down.

B1: human keratin 1 helix 2B domain (K1-2B) (domain or fragment, UniProt P04264 370-489, looked up)
chain: ESLYQSKYEELQITAGRHGDSVRNSKIEISELNRVIQRLRSEIDNVKKQISNLQQSISDAEQRGENALKDAKNKLNDLEDALQQAKEDLARLLRDYQELMNTKLALDLEIATYRTLLEGE
The term stoichiometry N denotes a count of units in the complex or per binding partner. Regarding B1, the “stoichiometry N” value was 1.
